Assay results reported in US20230279131A1.
Like-named read-outs stand apart in the source and are kept apart here.

Tests used:
[1] = target: T1, human IL2Rγ expressed on cells (human) (UniProt P31785); test: cell-based or functional assay
T1 sequence (looked up): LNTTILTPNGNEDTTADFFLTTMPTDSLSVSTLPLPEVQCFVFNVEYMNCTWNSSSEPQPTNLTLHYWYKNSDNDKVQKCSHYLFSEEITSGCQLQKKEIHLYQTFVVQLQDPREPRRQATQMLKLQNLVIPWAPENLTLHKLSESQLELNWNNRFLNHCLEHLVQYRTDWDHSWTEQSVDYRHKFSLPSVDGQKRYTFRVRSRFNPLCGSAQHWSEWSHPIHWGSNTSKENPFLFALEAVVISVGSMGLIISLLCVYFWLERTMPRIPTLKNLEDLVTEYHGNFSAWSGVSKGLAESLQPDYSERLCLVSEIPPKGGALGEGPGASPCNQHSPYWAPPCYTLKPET

[2] = target: T1, human IL2Rγ expressed on cells (human); test: cell-based or functional assay; remark: listed apart in the source
[3] = target: T2, mouse IL-2Rγ expressed on cells (MC/9) (mouse) (UniProt P34902); test: flow cytometry on MC/9 cells (endogenous mouse IL-2Rg), secondary antibody alone
T2 sequence (looked up): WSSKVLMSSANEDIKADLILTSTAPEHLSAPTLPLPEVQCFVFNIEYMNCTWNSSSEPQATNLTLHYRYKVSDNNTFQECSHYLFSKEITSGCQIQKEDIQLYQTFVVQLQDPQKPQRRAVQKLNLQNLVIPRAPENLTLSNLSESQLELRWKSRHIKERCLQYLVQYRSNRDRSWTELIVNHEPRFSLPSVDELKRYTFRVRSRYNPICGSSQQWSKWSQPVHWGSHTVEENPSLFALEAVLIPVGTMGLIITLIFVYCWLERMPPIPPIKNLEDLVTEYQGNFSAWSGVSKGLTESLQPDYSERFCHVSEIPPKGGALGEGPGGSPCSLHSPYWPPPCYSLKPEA

[4] = target: T3, human IL-2Rγ expressed on cells (NK-92, Jurkat) (human) (UniProt P31785); test: flow cytometry on NK-92 cells (endogenous human IL-2Rg), secondary antibody alone
T3 sequence (looked up): T1 sequence (looked up)

[5] = target: T3, human IL-2Rγ expressed on cells (NK-92, Jurkat) (human); test: flow cytometry on Jurkat cells (endogenous human IL-2Rg), secondary antibody alone
[6] = target: T2, mouse IL-2Rγ expressed on cells (MC/9) (mouse); test: flow cytometry on MC/9 cells (endogenous mouse IL-2Rg), isotype control 10 ug/ml
[7] = target: T3, human IL-2Rγ expressed on cells (NK-92, Jurkat) (human); test: flow cytometry on NK-92 cells (endogenous human IL-2Rg), isotype control 10 ug/ml
[8] = target: T3, human IL-2Rγ expressed on cells (NK-92, Jurkat) (human); test: as above; remark: listed apart in the source
[9] = target: T3, human IL-2Rγ expressed on cells (NK-92, Jurkat) (human); test: flow cytometry on Jurkat cells (endogenous human IL-2Rg), isotype control 10 ug/ml
[10] = target: human IL-2Rγ expressed on cells (human) (UniProt P31785); test: flow cytometry, isotype control at 10 µg/ml; high end of the range (NK-92 by Table 9-1)
[11] = target: human IL-2Rγ expressed on cells (human) (UniProt P31785); test: flow cytometry, isotype control at 10 µg/ml; low end of the range (Jurkat by Table 9-1)
[12] = target: human IL-2Rγ expressed on cells (human) (UniProt P31785); test: flow cytometry on NK-92 cells, isotype control at 10 µg/ml; the end of the range that Table 9-2 ties to NK-92

Q: How did the EC50 [M] of ligand; NK92/hIL7R/STAT3-luc [1] turn out when “human IL-21 (from UniProt Q9HBE4 30-162) (ligand)” was run?
A: 3.1e-12 M

Q: And the EC50 [M] of ligand; NK92/hIL7R/STAT3-luc [2]?
A: 6e-12 M

Q: Which results are given for “human IL-15 (from UniProt P40933 49-162) (ligand)”?
A: EC50 [M] of ligand; NK92/hIL7R/STAT3-luc [1]: 1.5e-10 M; EC50 [M] of ligand; NK92/hIL7R/STAT3-luc [2]: 2.3e-10 M

Q: Which EC50 [M] of ligand; NK92/hIL7R/STAT3-luc [1] does the source give for “human IL-2 (from UniProt P60568 21-153) (ligand)” here?
A: 3.3e-11 M

Q: And the EC50 [M] of ligand; NK92/hIL7R/STAT3-luc [2]?
A: 4.5e-11 M

Q: With “anti-human antibody conjugated to allophycocyanin (APC) (Jackson ImmunoResearch, #109-136-170)” as the substance, how does the Binding Ratio (Sample over unstained MFIs) [3] read?
A: 1

Q: What about the Binding Ratio (Sample over unstained MFIs) [4] of the same substance?
A: 1

Q: And the Binding Ratio (Sample over unstained MFIs) [5]?
A: 1

Q: REGN1945 (antibody) was tested. Which Binding Ratio (Sample over unstained MFIs) [6] did it give?
A: 1

Q: And the Binding Ratio (Sample over unstained MFIs) [7]?
A: 13

Q: What about the Binding Ratio (Sample over unstained MFIs) [8] of the same substance?
A: 1

Q: And the Binding Ratio (Sample over unstained MFIs) [9]?
A: 1

Q: And the binding ratio (sample MFI over unstained MFI) [10]?
A: 13

Q: And the binding ratio (sample MFI over unstained MFI) [11]?
A: 1

Q: And the binding ratio (sample MFI over unstained MFI) [12]?
A: 1

Q: “human IL-9 (from UniProt P15248 19-144) (ligand)” was tested. Which EC50 [M] of ligand; NK92/hIL7R/STAT3-luc [1] did it give?
A: 2e-11 M

Q: And the EC50 [M] of ligand; NK92/hIL7R/STAT3-luc [2]?
A: 3.3e-11 M
